Laboratory results taken from patent publication US20220332804A1 (CSL INNOVATION, published 2022).
Changes are numbered by the printed parent chain. Names and notes keep the numbering of the source.

Assays:
[1] = target: T1, human C2a (activated human C2) (human, UniProt P06681 244-752); assay: SPR, HBS-EP, pH 7.3, 37 C
T1 construct: the whole entry is named here; also called huC2a
T1 sequence: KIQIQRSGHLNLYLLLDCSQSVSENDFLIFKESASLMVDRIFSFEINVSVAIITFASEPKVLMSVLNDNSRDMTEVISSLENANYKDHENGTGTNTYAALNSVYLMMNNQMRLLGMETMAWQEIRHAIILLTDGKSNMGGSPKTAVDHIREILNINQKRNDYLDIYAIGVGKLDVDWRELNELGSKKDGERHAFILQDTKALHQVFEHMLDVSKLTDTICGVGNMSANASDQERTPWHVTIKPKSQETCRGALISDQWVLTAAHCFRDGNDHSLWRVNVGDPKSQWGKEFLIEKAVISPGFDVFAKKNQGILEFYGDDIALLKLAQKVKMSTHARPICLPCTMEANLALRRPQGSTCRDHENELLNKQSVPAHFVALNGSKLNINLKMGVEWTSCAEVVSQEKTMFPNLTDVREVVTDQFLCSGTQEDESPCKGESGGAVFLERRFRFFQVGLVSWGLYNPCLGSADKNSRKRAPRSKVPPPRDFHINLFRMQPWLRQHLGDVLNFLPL
Description: (§1) Surface plasmon resonance (SPR, Biacore) was used for all binding affinity analyses. In brief, goat anti-human IgG was directly immobilised onto the carboxymethyl dextran surface of CM5 sensorchips to approximately 12,000 RU using standard NHS/EDC chemistry at pH 5. The immobilised antibody surface was pre-conditioned with ten injections of polyclonal human IgG (Privigen 60 s) prepared at 1 μg/mL. Ligands (anti-C2 mAbs) were captured at the beginning of each cycle as described below. An adjacent spot or flow cell in which only Polyclonal IgG was capture was used as a reference surface. The goat anti-human IgG Fc antibody surface was regenerate in 100 mM H3PO4, injected for 45 seconds at the end of each cycle. Experiments were performed at 37° C. and the flow rate of each experiment was kept constant at 30 μL/min.
(§2) Purified human C2 zymogen and human C2a were tested at concentrations ranging from 1.9 to 500 nM while human C2b was tested at concentrations ranging from 1.9 to 1000 nM. All experiments were performed in HBS-EP buffer supplemented with 0.1% BSA at 37° C. and pH 7.3. Each antibody was tested against human C2 zymogen and human C2a in duplicate and against C2b in quadruplicate. The flow rate was set to 30 μL/min. Each analyte concentration was tested in duplicate.

[2] = target: T2, human C2b (human, UniProt P06681 21-243); assay: SPR, HBS-EP, pH 7.3, 37 C
T2 construct: the whole entry is named here
T2 sequence: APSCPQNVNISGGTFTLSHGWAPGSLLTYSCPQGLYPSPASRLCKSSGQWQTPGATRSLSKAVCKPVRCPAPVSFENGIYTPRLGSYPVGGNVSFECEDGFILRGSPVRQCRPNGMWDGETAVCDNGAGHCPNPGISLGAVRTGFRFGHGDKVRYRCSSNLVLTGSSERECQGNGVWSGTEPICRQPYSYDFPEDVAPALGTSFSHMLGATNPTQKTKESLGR
Description: as §1, §2

[3] = target: T3, human complement C2 zymogen (human, UniProt P06681 21-752); assay: SPR, human C2 zymogen analyte, HBS-EP, pH 7.3, 37 C
T3 construct: also called huC2; human C2
T3 sequence: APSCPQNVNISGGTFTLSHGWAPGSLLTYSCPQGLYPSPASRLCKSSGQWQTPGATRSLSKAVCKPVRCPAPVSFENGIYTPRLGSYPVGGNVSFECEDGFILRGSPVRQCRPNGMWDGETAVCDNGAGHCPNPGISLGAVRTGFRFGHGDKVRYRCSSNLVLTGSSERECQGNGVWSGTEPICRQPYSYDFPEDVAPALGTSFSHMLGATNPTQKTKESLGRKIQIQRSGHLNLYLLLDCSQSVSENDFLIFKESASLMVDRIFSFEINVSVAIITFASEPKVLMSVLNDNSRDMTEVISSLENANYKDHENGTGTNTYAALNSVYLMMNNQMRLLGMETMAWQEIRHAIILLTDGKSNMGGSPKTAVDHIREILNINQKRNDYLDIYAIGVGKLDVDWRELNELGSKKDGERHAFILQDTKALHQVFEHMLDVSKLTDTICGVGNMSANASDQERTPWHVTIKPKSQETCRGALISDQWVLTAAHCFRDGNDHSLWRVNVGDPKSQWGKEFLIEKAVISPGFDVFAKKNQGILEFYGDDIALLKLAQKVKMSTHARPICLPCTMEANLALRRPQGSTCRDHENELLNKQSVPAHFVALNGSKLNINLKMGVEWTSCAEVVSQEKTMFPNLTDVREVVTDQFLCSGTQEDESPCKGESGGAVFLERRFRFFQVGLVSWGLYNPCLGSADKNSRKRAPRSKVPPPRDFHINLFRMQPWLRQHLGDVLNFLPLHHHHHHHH
Description: as §1, §2

[4] = target: T4, cynomolgus monkey FcRn/β2m (cynomolgus monkey, UniProt Q8SPV9 24-297; Q8SPW0 21-119, limits assumed); assay: SPR, immobilised antibody, cyno FcRn/b2m analyte, pH 6.0; pH 6.0
T4 construct: injected in solution over immobilised antibody; also called Cyno FcRn/β2m
T4 sequence (Q8SPV9 24-297 limits assumed, chain 1 of 2): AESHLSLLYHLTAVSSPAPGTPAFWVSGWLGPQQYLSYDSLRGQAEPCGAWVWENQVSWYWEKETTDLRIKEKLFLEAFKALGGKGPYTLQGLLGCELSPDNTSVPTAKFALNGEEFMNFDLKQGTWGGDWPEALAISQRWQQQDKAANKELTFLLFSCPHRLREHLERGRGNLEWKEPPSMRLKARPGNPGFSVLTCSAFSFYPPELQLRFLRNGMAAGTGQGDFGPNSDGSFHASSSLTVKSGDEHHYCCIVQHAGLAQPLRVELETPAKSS
T4 sequence (Q8SPW0 21-119 limits assumed, chain 2 of 2): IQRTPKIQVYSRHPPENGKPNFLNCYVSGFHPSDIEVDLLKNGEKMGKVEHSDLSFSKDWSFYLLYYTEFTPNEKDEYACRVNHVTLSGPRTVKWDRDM
Description: (§3) Anti-C2 mAbs (1 μg/mL at pH 5) were immobilized on a carboxylmethyldextran (CM5) sensorchip surface using standard EDC/NHS chemistry. Human and Cyno FcRn/β2m (40 μM) were prepared in running buffer (10 mM HEPES, 150 mM NaCl, 10 mM MES adjusted to either pH 6 or pH 7.3) and injected on the immobilized anti-C2 surface at concentrations ranging from 0.078 to 40 μM, prepared in two-fold dilutions in running buffer. Association and dissociation phases were monitored for 180 and 600 seconds, respectively. […] Double referenced sensorgrams were fitted to either a 1:1 kinetic model (pH 6), including a term for mass transport limitation or to a 1:1 steady state model (pH 7.3) where responses at the end of the association phase were plotted against respective concentrations.
(§4) Binding to both human and cynomolgus monkey FcRn was tested using the SPR methods described above.

[5] = target: T3, human complement C2 zymogen; assay: SPR kinetics, captured antibody, analyte huC2 0 mM Ca^2+, pH 7.3
Description: as §1
(§5) Calcium concentrations ranged from zero (i.e. no added calcium, control) to near physiological levels (0.02, 0.2 and 2 mM CaCl₂.2H₂O, MW 147.02 Da).

[6] = target: T3, human complement C2 zymogen; assay: SPR steady state, captured antibody, analyte huC2 0 mM Ca^2+, pH 6.0
Description: as §1, §5

[7] = target: T3, human complement C2 zymogen; assay: SPR kinetics, captured antibody, analyte huC2 20 mM Ca^2+ (so in the source), pH 7.3
Description: as §1, §5

[8] = target: T3, human complement C2 zymogen; assay: SPR kinetics, captured antibody, analyte huC2 200 mM Ca^2+ (so in the source), pH 7.3
Description: as §1, §5

[9] = target: T3, human complement C2 zymogen; assay: SPR kinetics, captured antibody, analyte huC2 2000 mM Ca^2+ (so in the source), pH 7.3
Description: as §1, §5

[10] = target: T3, human complement C2 zymogen; assay: SPR steady state, captured antibody, analyte huC2 20 mM Ca^2+ (so in the source), pH 6.0
Description: as §1
(§6) Sensogram data was double-referenced against a reference anti-IgG surface (i.e. minus anti-C2 mAb) and blank buffer injections obtained within each experiment. The binding data was fit to 1:1 (kinetic or steady-state) model using local Rmax and null refraction index (RI=0) when appropriate. Buffers and solutions were filtered (0.22 μm) prior to use.
as §5

[11] = target: T3, human complement C2 zymogen; assay: SPR steady state, captured antibody, analyte huC2 200 mM Ca^2+ (so in the source), pH 6.0
Description: as §1, §6, §5

[12] = target: T3, human complement C2 zymogen; assay: SPR steady state, captured antibody, analyte huC2 2000 mM Ca^2+ (so in the source), pH 6.0
Description: as §1, §5

[13] = target: T4, cynomolgus monkey FcRn/β2m; assay: SPR, immobilised antibody, cyno FcRn/b2m analyte, pH 6.0
Description: as §3, §4

[14] = target: T4, cynomolgus monkey FcRn/β2m; assay: SPR, immobilised antibody, cyno FcRn/b2m analyte, pH 7.3
Description: as §3, §4

[15] = target: T3, human complement C2 zymogen; assay: SPR kinetics, captured antibody, analyte huC2 0 mM Ca^2+, pH 7.3; remark: listed apart in the source
Description: as §1

[16] = target: T3, human complement C2 zymogen; assay: SPR kinetics, captured antibody, analyte huC2 (so in the source), pH 7.3
Description: as §1

[17] = target: T3, human complement C2 zymogen; assay: SPR steady state, captured antibody, analyte huC2 0 mM Ca^2+, pH 6.0; remark: listed apart in the source
[18] = target: T3, human complement C2 zymogen; assay: SPR kinetics, captured antibody, analyte huC2 20 mM Ca^2+ (so in the source), pH 7.3; remark: listed apart in the source
Description: as §1

[19] = target: T3, human complement C2 zymogen; assay: SPR kinetics, captured antibody, analyte huC2 200 mM Ca^2+ (so in the source), pH 7.3; remark: listed apart in the source
Description: as §1

[20] = target: T3, human complement C2 zymogen; assay: SPR kinetics, captured antibody, analyte huC2 2000 mM Ca^2+ (so in the source), pH 7.3; remark: listed apart in the source
Description: as §1

[21] = target: T3, human complement C2 zymogen; assay: SPR steady state, captured antibody, analyte huC2 20 mM Ca^2+ (so in the source), pH 6.0; remark: listed apart in the source
[22] = target: T3, human complement C2 zymogen; assay: SPR steady state, captured antibody, analyte huC2 200 mM Ca^2+ (so in the source), pH 6.0; remark: listed apart in the source
[23] = target: T3, human complement C2 zymogen; assay: SPR steady state, captured antibody, analyte huC2 2000 mM Ca^2+ (so in the source), pH 6.0; remark: listed apart in the source
[24] = target: T3, human complement C2 zymogen; assay: SPR kinetics, captured antibody, analyte huC2 0 mM Ca^2+, pH 7.3; remark: listed apart in the source
Description: as §1, §6, §5

[25] = target: T3, human complement C2 zymogen; assay: SPR kinetics, captured antibody, analyte huC2 (so in the source), pH 7.3; remark: listed apart in the source
Description: as §1, §6, §5

[26] = target: T3, human complement C2 zymogen; assay: SPR steady state, captured antibody, analyte huC2 0 mM Ca^2+, pH 6.0; remark: listed apart in the source
Description: as §1, §6, §5

[27] = target: T3, human complement C2 zymogen; assay: SPR kinetics, captured antibody, analyte huC2 20 mM Ca^2+ (so in the source), pH 7.3; remark: listed apart in the source
Description: as §1, §6, §5

[28] = target: T3, human complement C2 zymogen; assay: SPR kinetics, captured antibody, analyte huC2 200 mM Ca^2+ (so in the source), pH 7.3; remark: listed apart in the source
Description: as §1, §6, §5

[29] = target: T3, human complement C2 zymogen; assay: SPR kinetics, captured antibody, analyte huC2 2000 mM Ca^2+ (so in the source), pH 7.3; remark: listed apart in the source
Description: as §1, §6, §5

[30] = target: T3, human complement C2 zymogen; assay: SPR steady state, captured antibody, analyte huC2 20 mM Ca^2+ (so in the source), pH 6.0; remark: listed apart in the source
Description: as §1, §6, §5

[31] = target: T3, human complement C2 zymogen; assay: SPR steady state, captured antibody, analyte huC2 200 mM Ca^2+ (so in the source), pH 6.0; remark: listed apart in the source
Description: as §1, §6, §5

[32] = target: T3, human complement C2 zymogen; assay: SPR steady state, captured antibody, analyte huC2 2000 mM Ca^2+ (so in the source), pH 6.0; remark: listed apart in the source
Description: as §1, §6, §5

B1: RF16-226 (antibody, human IgG4 S228P, lambda)
heavy: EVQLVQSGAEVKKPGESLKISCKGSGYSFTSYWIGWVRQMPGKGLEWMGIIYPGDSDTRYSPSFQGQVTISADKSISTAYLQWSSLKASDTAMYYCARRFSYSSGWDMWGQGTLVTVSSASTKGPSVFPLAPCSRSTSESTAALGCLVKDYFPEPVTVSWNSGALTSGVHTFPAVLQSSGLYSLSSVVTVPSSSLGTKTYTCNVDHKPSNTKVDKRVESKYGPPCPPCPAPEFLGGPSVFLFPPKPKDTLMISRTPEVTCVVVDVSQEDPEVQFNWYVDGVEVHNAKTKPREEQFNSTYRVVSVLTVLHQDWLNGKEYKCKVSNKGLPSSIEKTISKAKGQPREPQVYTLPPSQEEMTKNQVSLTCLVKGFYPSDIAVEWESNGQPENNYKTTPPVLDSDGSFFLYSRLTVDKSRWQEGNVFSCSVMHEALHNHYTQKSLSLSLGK
light: SYELTQPPSVSVSPGQTARITCSGDALTSKYVAWYQQKSGLAPLLVIYEDTRRPSGIPAKFSGSSSGSVATLTISGAHGDDEADYYCYSTDASGHQRVFGGGTKLTVLSQPKAAPSVTLFPPSSEELQANKATLVCLISDFYPGAVTVAWKADGSPVKAGVETTKPSKQSNNKYAASSYLSLTPEQWKSHRSYSCQVTHEGSTVEKTVAPTECS
notes: Human antibody from a phage display library, unmodified Fc; also called WT
B1 was tested, and the binding result [1] was “no binding (tested: C2a tested up to 500 nM)”, the binding result [2] was “no binding (tested: C2b tested up to 1000 nM)” and the Kd [3] was 8 nM. For the same binder, the Kd [4] was 2100 nM, the Kd [5] was 9.2 nM and the koff [5] was 0.00499 s⁻¹. For the same binder, the kon [5] was 546000 M⁻¹ s⁻¹, the Kd [6] was 93.6 nM and the Kd [7] was 10.2 nM. It also gave a koff [7] of 0.0057 s⁻¹, a kon [7] of 569000 M⁻¹ s⁻¹ and a Kd [8] of 9.3 nM. The koff [8] was 0.0059 s⁻¹, the kon [8] was 631000 M⁻¹ s⁻¹ and the Kd [9] was 11.1 nM. The koff [9] was 0.0062 s⁻¹, the kon [9] was 561000 M⁻¹ s⁻¹ and the Kd [10] was 87.4 nM. For the same binder, the Kd [11] was 94.2 nM and the Kd [12] was 111 nM.

B2: RF16-226 YEY (Fc mutations M252Y, N286E, N434Y) (antibody, human IgG4 S228P, lambda)
heavy: EVQLVQSGAEVKKPGESLKISCKGSGYSFTSYWIGWVRQMPGKGLEWMGIIYPGDSDTRYSPSFQGQVTISADKSISTAYLQWSSLKASDTAMYYCARRFSYSSGWDMWGQGTLVTVSSASTKGPSVFPLAPCSRSTSESTAALGCLVKDYFPEPVTVSWNSGALTSGVHTFPAVLQSSGLYSLSSVVTVPSSSLGTKTYTCNVDHKPSNTKVDKRVESKYGPPCPPCPAPEFLGGPSVFLFPPKPKDTLYISRTPEVTCVVVDVSQEDPEVQFNWYVDGVEVHEAKTKPREEQFNSTYRVVSVLTVLHQDWLNGKEYKCKVSNKGLPSSIEKTISKAKGQPREPQVYTLPPSQEEMTKNQVSLTCLVKGFYPSDIAVEWESNGQPENNYKTTPPVLDSDGSFFLYSRLTVDKSRWQEGNVFSCSVMHEALHYHYTQKSLSLSLGK
light: B1 light
For B2, the Kd [13] was 19 nM, the Kd [14] was 2200 nM and the Kd [15] was 8.7 nM. For the same binder, the koff [15] was 0.00521 s⁻¹, the kon [15] was 601000 M⁻¹ s⁻¹ and the kon [16] was 538000 M⁻¹ s⁻¹. The Kd [17] was 84 nM, the Kd [18] was 8.8 nM and the koff [18] was 0.00516 s⁻¹. It also gave a kon [18] of 585000 M⁻¹ s⁻¹, a Kd [19] of 9.2 nM and a koff [19] of 0.00527 s⁻¹. It also gave a kon [19] of 573000 M⁻¹ s⁻¹, a Kd [20] of 10.7 nM and a koff [20] of 0.00573 s⁻¹. The Kd [21] was 81.9 nM, the Kd [22] was 86.9 nM and the Kd [23] was 105 nM.

B3: RF16-226 YTE (Fc mutations M252Y, S254T, T256E) (antibody, human IgG4 S228P, lambda)
heavy: B2 heavy with S253T, T255E, E285N, Y433N
light: B1 light
In the case of B3, the Kd [4] is reported as 450 nM, the Kd [24] is reported as 8.5 nM and the koff [24] is reported as 0.00495 s⁻¹. For the same binder, the kon [24] was 584000 M⁻¹ s⁻¹, the kon [25] was 601000 M⁻¹ s⁻¹ and the Kd [26] was 74.3 nM. The Kd [27] was 7.9 nM, the koff [27] was 0.00521 s⁻¹ and the kon [27] was 657000 M⁻¹ s⁻¹. It also gave a Kd [28] of 8.3 nM, a koff [28] of 0.00543 s⁻¹ and a kon [28] of 653000 M⁻¹ s⁻¹. For the same binder, the Kd [29] was 9.9 nM, the koff [29] was 0.00592 s⁻¹ and the Kd [30] was 71 nM. For the same binder, the Kd [31] was 74.6 nM and the Kd [32] was 92.8 nM.
